Test results taken from article PMC10397247.

Columns and labels:
Assay in all cases: two-hybrid library CCmax;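 also: natural log of median RNA to DNA barcode read ratio; higher means stronger binding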
4H2466-AA = target: T1, 4H2466-AA; settings: mean of both orientations
T1 chain: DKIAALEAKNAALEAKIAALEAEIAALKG

4H2729-AA = target: T2, 4H2729-AA; settings: mean of both orientations
T2 chain: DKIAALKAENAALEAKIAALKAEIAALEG

4H48-AA = target: T3, 4H48-AA
T3 chain: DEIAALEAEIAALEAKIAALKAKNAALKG

4H2949-AA = target: T4, 4H2949-AA; settings: mean of both orientations
T4 chain: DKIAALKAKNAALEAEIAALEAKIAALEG

4H2393-AA = target: T5, 4H2393-AA; settings: mean of both orientations
T5 chain: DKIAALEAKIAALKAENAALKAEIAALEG

4H3606-AA = target: T6, 4H3606-AA; settings: mean of both orientations
T6 chain: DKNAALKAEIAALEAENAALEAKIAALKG

4H1552-AA = target: T7, 4H1552-AA; settings: mean of both orientations
T7 chain: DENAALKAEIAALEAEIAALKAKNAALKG

4H2078-AA = target: T8, 4H2078-AA; settings: mean of both orientations
T8 chain: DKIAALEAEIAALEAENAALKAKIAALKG

4H2944-AA = target: T9, 4H2944-AA; settings: mean of both orientations
T9 chain: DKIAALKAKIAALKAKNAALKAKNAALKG

4H2354-AA = target: T10, 4H2354-AA; settings: mean of both orientations
T10 chain: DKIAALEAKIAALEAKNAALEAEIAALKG

4H2837-AA = target: T11, 4H2837-AA; settings: mean of both orientations
T11 chain: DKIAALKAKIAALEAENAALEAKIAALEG

4H429-AA = target: T12, 4H429-AA
T12 chain: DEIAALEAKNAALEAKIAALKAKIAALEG

4H2617-AA = target: T13, 4H2617-AA; settings: mean of both orientations
T13 chain: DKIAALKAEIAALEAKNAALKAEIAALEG

4H1401-AA = target: T14, 4H1401-AA; settings: mean of both orientations
T14 chain: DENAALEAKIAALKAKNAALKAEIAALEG

4H2277-AA = target: T15, 4H2277-AA; settings: mean of both orientations
T15 chain: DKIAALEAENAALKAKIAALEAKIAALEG

4H2575-AA = target: T16, 4H2575-AA; settings: mean of both orientations
T16 chain: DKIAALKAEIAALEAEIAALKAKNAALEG

4H993-AA = target: T17, 4H993-AA; settings: mean of both orientations
T17 chain: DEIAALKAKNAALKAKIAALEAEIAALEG

4H3343-AA = target: T18, 4H3343-AA; settings: mean of both orientations
T18 chain: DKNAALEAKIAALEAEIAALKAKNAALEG

4H3427-AA = target: T19, 4H3427-AA; settings: mean of both orientations
T19 chain: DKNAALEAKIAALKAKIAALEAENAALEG

4H2642-AA = target: T20, 4H2642-AA; settings: mean of both orientations
T20 chain: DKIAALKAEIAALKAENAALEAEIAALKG

4H335-AA = target: T21, 4H335-AA; settings: mean of both orientations
T21 chain: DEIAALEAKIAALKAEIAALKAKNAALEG

4H317-AA = target: T22, 4H317-AA; settings: mean of both orientations
T22 chain: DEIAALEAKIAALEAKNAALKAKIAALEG

4H3627-AA = target: T23, 4H3627-AA; settings: mean of both orientations
T23 chain: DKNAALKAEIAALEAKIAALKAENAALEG

4H2190-AA = target: T24, 4H2190-AA; settings: mean of both orientations
T24 chain: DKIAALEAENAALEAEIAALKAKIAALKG

4H2165-AA = target: T25, 4H2165-AA; settings: mean of both orientations
T25 chain: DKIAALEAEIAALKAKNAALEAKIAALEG

4H342-AA = target: T26, 4H342-AA; settings: mean of both orientations
T26 chain: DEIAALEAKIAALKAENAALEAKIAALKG

4H3921-AA = target: T27, 4H3921-AA; settings: mean of both orientations
T27 chain: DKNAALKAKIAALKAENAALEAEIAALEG

4H2754-AA = target: T28, 4H2754-AA; settings: mean of both orientations
T28 chain: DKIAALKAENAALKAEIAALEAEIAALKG

4H780-AA = target: T29, 4H780-AA; settings: mean of both orientations
T29 chain: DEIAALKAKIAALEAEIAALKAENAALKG

4H3655-AA = target: T30, 4H3655-AA; settings: mean of both orientations
T30 chain: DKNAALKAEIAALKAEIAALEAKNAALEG

4H3112-AA = target: T31, 4H3112-AA; settings: mean of both orientations
T31 chain: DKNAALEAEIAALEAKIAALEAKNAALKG

4H605-AA = target: T32, 4H605-AA; settings: mean of both orientations
T32 chain: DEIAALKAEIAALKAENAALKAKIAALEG

4H3844-AA = target: T33, 4H3844-AA; settings: mean of both orientations
T33 chain: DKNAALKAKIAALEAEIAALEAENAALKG

4H881-AA = target: T34, 4H881-AA; settings: mean of both orientations
T34 chain: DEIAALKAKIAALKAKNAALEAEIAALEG

4H1324-AA = target: T35, 4H1324-AA; settings: mean of both orientations
T35 chain: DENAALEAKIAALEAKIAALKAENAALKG

4H454-AA = target: T36, 4H454-AA; settings: mean of both orientations
T36 chain: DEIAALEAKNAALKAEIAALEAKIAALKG

4H678-AA = target: T37, 4H678-AA; settings: mean of both orientations
T37 chain: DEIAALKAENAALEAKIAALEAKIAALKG

4H2505-AA = target: T38, 4H2505-AA; settings: mean of both orientations
T38 chain: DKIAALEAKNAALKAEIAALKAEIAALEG

4H794-AA = target: T39, 4H794-AA; settings: mean of both orientations
T39 chain: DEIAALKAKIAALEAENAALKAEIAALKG

4H1867-AA = target: T40, 4H1867-AA; settings: mean of both orientations
T40 chain: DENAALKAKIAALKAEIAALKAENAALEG

4H2151-AA = target: T41, 4H2151-AA; settings: mean of both orientations
T41 chain: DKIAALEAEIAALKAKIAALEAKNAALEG

4H1352-AA = target: T42, 4H1352-AA; settings: mean of both orientations
T42 chain: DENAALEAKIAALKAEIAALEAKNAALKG

4H234-AA = target: T43, 4H234-AA; settings: mean of both orientations
T43 chain: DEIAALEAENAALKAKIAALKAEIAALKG

4H566-AA = target: T44, 4H566-AA; settings: mean of both orientations
T44 chain: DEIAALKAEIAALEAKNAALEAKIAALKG

4H1636-AA = target: T45, 4H1636-AA; settings: mean of both orientations
T45 chain: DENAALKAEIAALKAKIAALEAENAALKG

4H717-AA = target: T46, 4H717-AA; settings: mean of both orientations
T46 chain: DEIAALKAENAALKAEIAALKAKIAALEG

4H2883-AA = target: T47, 4H2883-AA; settings: mean of both orientations
T47 chain: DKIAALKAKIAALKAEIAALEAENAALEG

4H906-AA = target: T48, 4H906-AA; settings: mean of both orientations
T48 chain: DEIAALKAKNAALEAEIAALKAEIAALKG

4H122-AA = target: T49, 4H122-AA
T49 chain: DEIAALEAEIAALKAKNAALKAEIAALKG

B1: 4H122-AA (peptide)
chain: DEIAALEAEIAALKAKNAALKAEIAALKG
- interaction score (4H2466-AA): 0.13
- interaction score (4H2729-AA): 0.657
- interaction score (4H48-AA): -0.383
- interaction score (4H2949-AA): -0.323
- interaction score (4H2393-AA): 1.93
- interaction score (4H3606-AA): 2.36
- interaction score (4H1552-AA): -1.07
- interaction score (4H2078-AA): 2.3
- interaction score (4H2944-AA): -1.12
- interaction score (4H2354-AA): 0.207
- interaction score (4H2837-AA): 2.11
- interaction score (4H429-AA): -0.548
- interaction score (4H2617-AA): 1.96
- interaction score (4H1401-AA): -1.2
- interaction score (4H2277-AA): -1.29
- interaction score (4H2575-AA): -0.393
- interaction score (4H993-AA): -1.48
- interaction score (4H3343-AA): -1.31
- interaction score (4H3427-AA): -0.449
- interaction score (4H2642-AA): 1.83
- interaction score (4H335-AA): -1.07
- interaction score (4H317-AA): -1.2
- interaction score (4H3627-AA): -1.12
- interaction score (4H2190-AA): 1.57
- interaction score (4H2165-AA): -0.0868
- interaction score (4H342-AA): 1.76
- interaction score (4H3921-AA): 2.16
- interaction score (4H2754-AA): 0.606
- interaction score (4H780-AA): -1.74
- interaction score (4H3655-AA): -1.14
- interaction score (4H3112-AA): -0.199
- interaction score (4H605-AA): 0.129
- interaction score (4H3844-AA): -0.909
- interaction score (4H881-AA): 1.43
- interaction score (4H1324-AA): -1.09
- interaction score (4H454-AA): -0.403
- interaction score (4H678-AA): 1.05
- interaction score (4H2505-AA): -1.39
- interaction score (4H794-AA): 1.48
- interaction score (4H1867-AA): 1.01
- interaction score (4H2151-AA): -1.58
- interaction score (4H1352-AA): -1.3
- interaction score (4H234-AA): -1.28
- interaction score (4H566-AA): 1.5
- interaction score (4H1636-AA): -1.44
- interaction score (4H717-AA): -1.17
- interaction score (4H2883-AA): 0.209
- interaction score (4H906-AA): -1.43
- interaction score (4H122-AA): 1.61
